Substitutions are numbered along the chain they refer to.
T1: monkey TIM-3 on CHOK1 stable cell line (CHOK1-cTIM-3) (monkey)
T1 chain: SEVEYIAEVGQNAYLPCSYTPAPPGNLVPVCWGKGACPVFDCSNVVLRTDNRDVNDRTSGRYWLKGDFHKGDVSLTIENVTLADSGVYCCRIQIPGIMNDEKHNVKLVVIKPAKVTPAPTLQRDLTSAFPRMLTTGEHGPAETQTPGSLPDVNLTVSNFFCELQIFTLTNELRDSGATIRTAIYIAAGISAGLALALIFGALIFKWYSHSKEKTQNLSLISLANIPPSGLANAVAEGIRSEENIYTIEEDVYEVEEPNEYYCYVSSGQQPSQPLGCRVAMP

T2: human TIM-3 extracellular domain protein with hFc tag (hTIM-3-hFc) (human, UniProt Q8TDQ0 22-200)
T2 construct: not shown: human IgG Fc fragment (hFc) of the pCpC vector
T2 sequence: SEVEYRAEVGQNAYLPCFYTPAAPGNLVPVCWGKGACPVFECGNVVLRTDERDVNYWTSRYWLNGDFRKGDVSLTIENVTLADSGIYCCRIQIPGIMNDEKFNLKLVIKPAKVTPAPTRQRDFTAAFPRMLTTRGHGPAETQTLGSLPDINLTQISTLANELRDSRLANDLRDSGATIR

B1: 134H3G6 fully human TIM-3 antibody (human IgG4, kappa) (antibody, V domains shown)
VH: EVQLVESGGGLVQPGGSLRLSCAASGFTFSNSWMTWVRQAPGKGLEWVANIKQAGTEKYYVDSVKGRFTISRDNAKNSLYLQMNSLRAEDTAVYYCNSGSNYFDYWGQGTLVTVSS
VL: EIVMTQSPATLSVSPGERATLSCRARQNFYSNLAWYQQKPGQAPRLLIYGASTRATGIPARFSGSGSGTEFTLTISSLQSEDFAVYYCQQYNNWPLTFGGGTKVEIK
B2: 215A8F2 fully human TIM-3 antibody (human IgG4, kappa) (antibody, V domains shown)
VH: QVQLQQWGAGLLKPSETLSLTCTVYGGSFSGYYWNWIRQPPGKGLEWLGEINHSGSTNYNPSLKRRVTISVDTSKNQFSLKLSSVTAADTAVYYCARVYYYGPFDFWGQGTLVTVSS
VL: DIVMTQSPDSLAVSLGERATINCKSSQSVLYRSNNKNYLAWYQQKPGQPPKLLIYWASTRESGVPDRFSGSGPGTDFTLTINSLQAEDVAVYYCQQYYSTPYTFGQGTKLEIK
B3: 7A4F10 fully human TIM-3 antibody (human IgG4, kappa) (antibody, V domains shown)
VH: EVQLLESGGGLVQPGGSLRLSCAASGFTFRTHLISWVRQAPGKGLEWVAAITGSGGSTYYADSVKGRFIISRDNSKNTLFLQMNSLRAEDTAVYYCAKDGGSGSYDDFWGQGTLVTVSS
VL: ETVLTQSPVTLSLSPGERATLSCRASQSVGSYLAWYQQKPGQAPRLLIYDASNRATGIPARFSGSGSGTDFTLTISSLEPEDFAVYYCQQRSNWPPTFGQGTKVEIK
B4: 18D2H2 fully human TIM-3 antibody (human IgG4, kappa) (antibody, V domains shown)
VH: EVQLVESGGDLVQPGGSLRLSCAASGFTFSTYWMTWVRQAPGRGLEWVANIKQDGSAKYYVDSVKGRFTLSRDDAKNSLYLQMNSLRAEDTAVYYCARGSNWFDYWGQGTLVTVSS
VL: B1 VL with I2T, R26N, F29V, G50D, I58F

Molecular target: T1, monkey TIM-3 on CHOK1 stable cell line …
Assay: FACS, CHOK1-cTIM-3 cells, 0 nM antibody

Row | Binder | Mean fluorescence intensity
1 | B1 | 2.9
2 | B2 | 2.8
3 | B3 | 2.8
4 | B4 | 2.8

Molecular target: T1, monkey TIM-3 on CHOK1 stable cell line …
Assay: FACS, CHOK1-cTIM-3 cells, 40 nM antibody

Row | Binder | Mean fluorescence intensity
5 | B1 | 376
6 | B2 | 366
7 | B3 | 336
8 | B4 | 462

molecular target: T2, human TIM-3 extracellular domain …; assay: FACS, blocking of hTIM-3-hFc binding to phosphatidylserine on apoptotic Jurkat cells, 200 nM antibody
Experimental: (§1) Jurkat cells were treated with 1 μM staurosporine at 37° C. for 2 hours to induce apoptosis. The presence of phosphatidylserine was detected by Annexin V-FITC cell apoptosis detection kit. […] The cells were washed 1-2 times with PBS buffer, and after cell counting, the cells were diluted to 1-2×10⁶ cells per milliliter with binding buffer, and added to a 96-well FACS reaction plate at 100 microliters per well. The antibody sample to be tested and 2 μg/ml hTIM-3-hFc protein were prepared with binding buffer, and mixed equally in volume. The mixture was incubated at room temperature for 30 minutes, then the FACS reaction plate incubated with apoptotic cells was centrifuged to discard the supernatant, and the above mixture was added to the apoptotic cells at 100 microliters per well and incubated at room temperature for 1 hour. The plate was washed twice with the binding buffer by centrifugation, added with 100 microliters of fluorescent (Alexa 488)-labeled secondary antibodies per well, and incubated for half an hour. The plate was washed 2-3 times with the binding buffer by centrifugation, added with 100 microliters of PBS per well to suspend cells, and detected using FACS (FACS Calibur, BD) and the results were analyzed. The results are shown in Table 15 and FIG. 15, wherein the IgG control is human IgG, and the data in the table is the inhibition rate (%).

Row | Binder | Inhibition ratio (%)
9 | B1 | 37.6
10 | B2 | 52.1
11 | B3 | 56.9
12 | B4 | 56.1

molecular target: T2, human TIM-3 extracellular domain …; assay: FACS, blocking of hTIM-3-hFc binding to phosphatidylserine on apoptotic Jurkat cells, 0.274 nM antibody
Experimental: as §1

Row | Binder | Inhibition ratio (%)
13 | B1 | 8
14 | B2 | 0.3
15 | B3 | 0.9
16 | B4 | 5.4

molecular target: T2, human TIM-3 extracellular domain …; assay: FACS, blocking of hTIM-3-hFc binding to phosphatidylserine on apoptotic Jurkat cells, 7.407 nM antibody
Experimental: as §1

Row | Binder | Inhibition ratio (%)
17 | B1 | 60.1
18 | B2 | 59.5
19 | B3 | 62.4
20 | B4 | 64.9

Source: US20220033501A1 (SHANGHAI PHARMAEXPLORER, published 2022)
